In publication PMC11612968, “Endo-bind-n-seq: identifying RNA motifs of RNA binding proteins isolated from endogenous sources”:

Target: T1, GST-ZC3H7B(415-956) (UniProt Q9UGR2 415-956)
T1 sequence: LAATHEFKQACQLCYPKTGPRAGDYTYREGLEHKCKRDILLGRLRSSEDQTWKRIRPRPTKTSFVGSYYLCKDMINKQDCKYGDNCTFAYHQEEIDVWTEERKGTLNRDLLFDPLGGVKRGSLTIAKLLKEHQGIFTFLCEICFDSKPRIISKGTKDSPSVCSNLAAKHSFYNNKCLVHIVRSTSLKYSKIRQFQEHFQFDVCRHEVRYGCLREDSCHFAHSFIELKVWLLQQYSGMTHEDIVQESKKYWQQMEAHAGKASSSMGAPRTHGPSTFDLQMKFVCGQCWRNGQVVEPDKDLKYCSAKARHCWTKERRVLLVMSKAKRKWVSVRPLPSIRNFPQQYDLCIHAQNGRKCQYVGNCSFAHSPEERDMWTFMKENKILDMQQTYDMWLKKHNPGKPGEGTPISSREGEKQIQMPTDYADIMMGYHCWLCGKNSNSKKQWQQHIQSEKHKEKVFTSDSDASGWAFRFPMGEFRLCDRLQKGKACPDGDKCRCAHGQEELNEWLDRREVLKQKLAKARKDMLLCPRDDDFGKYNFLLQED
Assay: filter binding; Filter binding: 50 mM Tris-HCl pH 8.0, 150 mM NaCl, 5% glycerol, 20 C; EMSA: 20 mM HEPES-KOH pH 7.4, 100 mM NaCl, 1 mM MgCl2, 0.1% Tween20, 40 mM EDTA, 10% glycerol, 70 C; competition: 25 mM Tris-HCl pH 7.5, 150 mM KCl, 3 mM MgCl2, 0.01% NP-40, 1 mg/ml BSA, 1 mM DTT, 5% glycerol, RT
Details: protein: recombinant; tags: N-terminal GST (pGEX-4T-1, TEV site); label: 5' 32P

AUAGUGUAGU (ssRNA) [ZC3H7B motif RNA (AUAG)]
binding result: binds
